Results taken from patent US20220387578A1.

Key:
[1] = target: H1 HA A/Solomon Islands/03/2006 (H1N1), recombinant soluble trimer (influenza A virus)
[2] = target: H1 HA A/Texas/36/1991 (H1N1), recombinant soluble trimer (influenza A virus)
[3] = target: H3 HA A/Texas/50/2012, recombinant soluble trimer (influenza A virus)

B1: rFluA-20 heavy chain mutant Y34A (antibody, V domains shown)
VH: QVQLQESGPGLVKPSETLSLTCSVSGVSVTSDIAYWTWIRQPPGKGLEWIGYIFYNGDTNYNPSLKSRVTMSIDTSKNEFSLRLTSVTAADTAVYFCARGTEDLGYCSSGSCPNHWGQGTLVTVSS
VL: DIQMTQSPSSLSASIGDRVTITCRPSQNIRSFLNWFQHKPGKAPKLLIYAASNLQSGVPSRFSGSGSGTEFTLTIRSLQPEDFATYYCQQSYNTPPTFGQGTKVEIK
[1]
  EC50: 0.04 µg/mL
[2]
  EC50: 0.05 µg/mL
[3]
  EC50: 0.16 µg/mL

B2: rFluA-20 heavy chain mutant E97A (antibody, V domains shown)
VH: QVQLQESGPGLVKPSETLSLTCSVSGVSVTSDIYYWTWIRQPPGKGLEWIGYIFYNGDTNYNPSLKSRVTMSIDTSKNEFSLRLTSVTAADTAVYFCARGTADLGYCSSGSCPNHWGQGTLVTVSS
VL: DIQMTQSPSSLSASIGDRVTITCRPSQNIRSFLNWFQHKPGKAPKLLIYAASNLQSGVPSRFSGSGSGTEFTLTIRSLQPEDFATYYCQQSYNTPPTFGQGTKVEIK
[1]
  EC50: 0.07 µg/mL
[2]
  EC50: 0.05 µg/mL
[3]
  EC50: 0.18 µg/mL

B3: rFluA-20 heavy chain mutant T96A (antibody, V domains shown)
VH: QVQLQESGPGLVKPSETLSLTCSVSGVSVTSDIYYWTWIRQPPGKGLEWIGYIFYNGDTNYNPSLKSRVTMSIDTSKNEFSLRLTSVTAADTAVYFCARGAEDLGYCSSGSCPNHWGQGTLVTVSS
VL: DIQMTQSPSSLSASIGDRVTITCRPSQNIRSFLNWFQHKPGKAPKLLIYAASNLQSGVPSRFSGSGSGTEFTLTIRSLQPEDFATYYCQQSYNTPPTFGQGTKVEIK
[1]
  EC50: 0.03 µg/mL
[2]
  EC50: 0.04 µg/mL
[3]
  EC50: 0.07 µg/mL
